Laboratory results published in patent US20250092426, “CAS ENDONUCLEASES AND RELATED METHODS” (Flagship Pioneering Innovations VII, LLC, published 2025).

Biological target: T1, CasEnd-4 (synthetic construct)
T1 chain: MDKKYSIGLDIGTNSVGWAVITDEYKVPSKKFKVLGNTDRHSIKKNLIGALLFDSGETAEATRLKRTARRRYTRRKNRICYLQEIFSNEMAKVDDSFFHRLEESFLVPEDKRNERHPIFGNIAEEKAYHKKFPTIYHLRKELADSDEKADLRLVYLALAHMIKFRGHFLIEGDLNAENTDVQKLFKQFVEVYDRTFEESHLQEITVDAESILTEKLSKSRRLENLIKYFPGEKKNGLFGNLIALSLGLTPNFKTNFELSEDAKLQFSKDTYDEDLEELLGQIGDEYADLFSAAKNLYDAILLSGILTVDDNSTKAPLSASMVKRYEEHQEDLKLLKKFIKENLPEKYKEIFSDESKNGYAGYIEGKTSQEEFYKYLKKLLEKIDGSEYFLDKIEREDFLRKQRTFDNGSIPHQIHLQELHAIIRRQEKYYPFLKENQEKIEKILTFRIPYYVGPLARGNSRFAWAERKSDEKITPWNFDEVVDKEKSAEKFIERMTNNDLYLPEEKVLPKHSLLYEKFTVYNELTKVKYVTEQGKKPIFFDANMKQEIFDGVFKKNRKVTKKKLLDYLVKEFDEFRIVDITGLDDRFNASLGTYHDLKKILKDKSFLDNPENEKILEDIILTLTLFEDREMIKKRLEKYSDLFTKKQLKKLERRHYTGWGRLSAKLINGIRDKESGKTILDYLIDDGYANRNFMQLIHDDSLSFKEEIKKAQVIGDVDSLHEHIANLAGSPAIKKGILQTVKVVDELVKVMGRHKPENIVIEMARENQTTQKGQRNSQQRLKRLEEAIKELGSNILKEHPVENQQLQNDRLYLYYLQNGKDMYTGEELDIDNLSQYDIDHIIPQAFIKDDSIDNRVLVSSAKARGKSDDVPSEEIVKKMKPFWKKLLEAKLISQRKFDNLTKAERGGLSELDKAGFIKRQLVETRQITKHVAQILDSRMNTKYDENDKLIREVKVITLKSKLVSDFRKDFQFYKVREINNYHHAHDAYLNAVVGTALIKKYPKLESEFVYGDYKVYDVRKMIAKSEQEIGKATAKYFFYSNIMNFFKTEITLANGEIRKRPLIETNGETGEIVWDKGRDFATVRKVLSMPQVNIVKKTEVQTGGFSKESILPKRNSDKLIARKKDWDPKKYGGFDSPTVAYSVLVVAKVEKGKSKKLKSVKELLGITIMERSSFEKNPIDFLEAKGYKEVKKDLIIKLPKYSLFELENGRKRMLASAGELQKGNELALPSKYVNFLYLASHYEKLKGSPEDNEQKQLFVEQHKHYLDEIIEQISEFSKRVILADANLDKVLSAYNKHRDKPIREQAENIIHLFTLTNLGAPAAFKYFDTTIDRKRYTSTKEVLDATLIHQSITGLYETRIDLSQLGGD
Experiment: cell_activity; +++; HEK293T; PAM not stated
Summary of the method: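 BFP-to-GFP conversion via reverse transcriptase fusion with each Cas endonuclease plus template RNA: 200 ng of each plasmid nucleofected into 250,000 BFP-expressing HEK293T cells (program DS-150). Percent GFP+ cells by flow cytometry at day 4 measured editing.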

B1: BFP-to-GFP template RNA ; BFP reporter protospacer (ssRNA ; dsDNA)
RNA: GCCGAAGCACUGCACGCCGUGUUUUAGAGCUAGAAAUAGCAAGUUAAAAUAAGGCUAGUCCGUUAUCAACUUGAAAAAGUGGCACCGAGUCGGUGCACCCUGACGUACGGCGUGCAGUGCUU
DNA 1: GCCGAAGCACTGCACGCCGT
DNA 2: ACGGCGTGCAGTGCTTCGGC
**Q.** Which activity does the source give for B1 here?
**A.** ≥ 100 % of reference
